Data on 7 molecules can be found in US20190359687A1 (Bayer, published 2019).

Assay [1] deals with T1, purified human glycophorin A protein (Sigma, cat # G5017) (human, UniProt P02724 20-150).
T1 construct: mature; also called Sigma hGPA; Sigma GPA
T1 sequence (looked up): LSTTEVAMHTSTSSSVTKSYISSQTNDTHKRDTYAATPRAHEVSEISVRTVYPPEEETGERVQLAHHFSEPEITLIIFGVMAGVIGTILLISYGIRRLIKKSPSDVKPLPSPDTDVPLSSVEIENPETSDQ
Kind of assay: ELISA, hGPA. On the technique in general: An ELISA detects its analyte on a solid surface through an enzyme-linked reagent.

The target of assay [2] is T2, human glycophorin A in the red blood cell membrane (human, UniProt P02724 20-150).
T2 construct: whole, on cells; used for intact RBC, isolated RBC membranes and transfected cells; the assay field tells which; also called GPA; hGPA
T2 sequence (looked up): T1 sequence (looked up)
Kind of assay: FACS, hu RBC. In general terms: In flow cytometry, cells or beads pass a laser one at a time.
Protocol: (§1) Hybridomas were generated from the spleen cells of these mice and these hybriomas were screened first by fluorescence activated cell sorting (FACS) against isolated human and monkey (Cynomolgus monkey and Rhesus monkey) red blood cells (RBC) and then by ELISA against purified human glycophorin A protein (GPA). Isolated RBC were prepared from whole blood from normal human, cynomolgus monkey, and beagle dog, were anticoagulant with sodium heparin (Bioreclamation). 2-3 mL of whole blood was loaded gently on the top of 3 mL Ficoll Plus (Sigma Aldrich) then centrifuged at 500 g for 20 min at room temperature (RT). The RBC pellets were washed 3 times with 10 mL of PBS, and centrifuge 400 g for 10 min at RT. RBC pellets were re-suspended in PBS at the same total volume as the original blood volume to achieve the same RBC cell density as in whole blood and stored at 4° C. Purified human glycophorin A protein was obtained from Sigma Aldrich and coated on ELISA plates at 2 ug/ml. Binding of antibodies to human GPA was detected using appropriate secondary antibodies using methods well known in the art.

For assay [3], the target named is T3, dog red blood cells (dog).
T3 construct: also called dog RBC
The assay can be described thus: FACS, dog RBC.
Protocol: as §1

The target of assay [4] is T4, Cynomolgus monkey glycophorin A on Cynomolgus monkey red blood cells (Cynomolgus monkey).
T4 construct: whole, on cells; also called Cyno RBC; Cyno GPA
The assay can be described thus: FACS, Cyno RBC.
Protocol: as §1

For assay [5], the target named is T5, Cynomolgus monkey glycophorin A on Cynomolgus monkey red blood cells (Cynomolgus monkey).
T5 construct: whole, on cells; also called Cyno GPA; Cyno RBC
Kind of assay: partition to Cyno RBC, human HemA plasma, 1 min.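 Further: FVIII fusion spiked at 1 IU/mL into RBC suspension at whole-blood density.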
Protocol: (§2) To evaluate partition to cynomolgus monkey or human red blood cells, whole blood was draw from Cynomolgus monkey or normal human volunteers in to anticoagulant with 4% sodium citrate (Sigma, St Louis, Mo.). The red blood cells were purified by layering the whole blood on to ficoll followed by low speed centrifugation. The supernatant containing plasma, platelets and white blood cells was discarded and the red blood cell pellet was resuspended in 10 pellet volumes of PBS (50 mM Phosphate buffer, pH7.4, 150 mM NaCl). The red blood cells were then pelleted by slow speed centrifugation and the red blood cells re-suspended in 10 volumes of PBS. This washing step was repeated 4 more times and the red blood cells finally resuspended in a volume of plasma from Hemophilia patients with less than 1% of normal levels of FVIII (GeorgeKing Bio-Medical, Overland Park, Kans.) to generate a total volume equal to the initial blood volume such that the RBC density was equal to that of normal whole blood. BDD and RBC targeted FVIII molecules were then spiked into RBC suspension in HemA plasma at 1 IU/mL, and incubated at room temperature for 2-3 hours with gentle rotation. […] An additional control was performed in which BDD or RBC targeted FVIII molecules were added at 11U/ml into the same human hemophilia A plasma and incubated for 5 minutes and 180 mins. These samples were used to determine the input FVIII activity in the presence of plasma which was used to calculate the percentage of the molecule that was bound to RBC. All plasma samples were then assayed together for FVIII activity using the Coatest SP assay (DiaPharma, Columbus, Ohio). The assay was performed following the manufacturer's instructions in a 96-well plate format. […] The plate was incubated at 37° C. for 10 minutes with shaking between each reagent addition.

Assay [6] addresses T5, Cynomolgus monkey glycophorin A on …. The assay can be described thus: partition to Cyno RBC, human HemA plasma, 5 min.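 Further: FVIII fusion spiked at 1 IU/mL into RBC suspension at whole-blood density.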
The target is the same in assay [7]. The assay can be described thus: partition to Cyno RBC, human HemA plasma, 15 min.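 Further: FVIII fusion spiked at 1 IU/mL into RBC suspension at whole-blood density.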
Protocol: as §2
Assay [8] has the same target. The assay can be described thus: partition to Cyno RBC, human HemA plasma, 30 min.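 Further: FVIII fusion spiked at 1 IU/mL into RBC suspension at whole-blood density.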
The target is the same in assay [9]. The assay can be described thus: partition to Cyno RBC, human HemA plasma, 60 min.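 Further: FVIII fusion spiked at 1 IU/mL into RBC suspension at whole-blood density.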
For assay [10] the target is unchanged. Kind of assay: partition to Cyno RBC, human HemA plasma, 120 min.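 Further: FVIII fusion spiked at 1 IU/mL into RBC suspension at whole-blood density.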
In assay [11] the target is T6, human glycophorin A on human red blood cells (human, UniProt P02724 20-150).
T6 construct: whole, on cells; also called human GPA; huGPA
T6 sequence (looked up): T1 sequence (looked up)
The assay can be described thus: partition to human RBC, vWF deficient plasma, 1 min.

Assay [12] addresses T6, human glycophorin A on human red blood …. Kind of assay: partition to human RBC, vWF deficient plasma, 5 min.
The target is the same in assay [13]. The assay can be described thus: partition to human RBC, vWF deficient plasma, 15 min.
Assay [14] shares this target. The assay can be described thus: partition to human RBC, vWF deficient plasma, 30 min.
Assay [15] has the same target. Kind of assay: partition to human RBC, vWF deficient plasma, 60 min.
The target is the same in assay [16]. Kind of assay: partition to human RBC, vWF deficient plasma, 120 min.
Assay [17] concerns the target T7, glycophorin A peptide GP5 (human, biotin at the N-terminus).
T7 construct: Residues 42 to 61 of the human glycophorin A extracellular domain
T7 peptide: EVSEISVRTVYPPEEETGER
The assay can be described thus: Octet, GP5 peptide on the probe, fusion protein in solution, 1:1 fit.

The target of assay [18] is T3, dog red blood cells. The assay can be described thus: FACS, Dog RBC.
Assay [19] addresses T2, human glycophorin A in the red blood …. The assay can be described thus: FACS, Human RBC.
Assay [20] has as its target T4, Cynomolgus monkey glycophorin A on …. Kind of assay: FACS, Cyno #1 RBC.
Assay [21] has the same target. Kind of assay: FACS, Cyno #2 RBC.
Assay [22] shares this target. The assay can be described thus: FACS, Cyno #3 RBC.

The term EC50 denotes the midpoint of the concentration-response curve. The Kd is the constant that tells how readily two partners part at equilibrium. The term koff denotes the rate constant with which the complex falls apart. As a reminder, the kon is the second-order rate constant of association.

Changes are numbered by the printed parent chain.

B1: 12C6A6/A5 (antibody, V domains shown)
VH: QVQLQQSGAELARPGASVKMSCKASGYTFTRYSMHWVKQRPGQGLEWIGYINPGTYSTNYNQKFKDRATLTADKSSSTAYMQLNSLTSEDSAVYYCQTGTRDYWGQGTTLTVSS
VL: QIVLTQSPPIMSASPGEKVTITCSAASSVSYIYWFQQKPGTSPKLWIYSTSSLPSGVPTRFSGSGSGTSYSLTISRMEAEDAATYYCHQRSSYPFTFGSGTKLEIR
notes: as m8
In [1], B1 displayed a half-maximal effective concentration (EC50) of 266 pM. Further, the FACS signal in assay [2] is 2840 relative flourescence units; with dog red blood cells [3], 0.96 relative flourescence units; in assay [4], 7 relative flourescence units.

B2: 8F9E9/F11 (antibody, V domains shown)
VH: QVQLQQSGAELARPGASVKMSCKASGYTFTSYSIHWIKQRPGQSLEWIGYINPNSDYANYNQKFKDKATLTTDKSSTTAYMQLSSLTTDDSAVYYCQTGTRDYWGQGTTLTVSS
VL: B1 VL with Q1H, P9A, T22I, A26R, I32M, S49A, T59A, F95Y, R106K
notes: as m8
In the case of B2, in [1], the 50% effective concentration (EC50) amounted to 159 pM. The FACS signal in [2] was 2860 relative flourescence units; in the assay with dog red blood cells [3], 1.05 relative flourescence units; in assay [4] it was 284 relative flourescence units.

B3: 10F1B10/F3 (antibody, V domains shown)
VH: B1 VH with Q5L, K19R, M20I, S33A, Y56F
VL: B1 VL
notes: as m8
B3 yielded an EC50 in assay [1] of 192 pM. Moreover, the FACS signal was 2860 relative flourescence units in [2], 1.04 relative flourescence units with dog red blood cells [3] and 280 relative flourescence units in assay [4].

B4: 1E4A2/F8 (antibody, V domains shown)
VH: B1 VH with S57Y
VL: B1 VL
notes: as m8
As for B4, the midpoint of the response in assay [1], the EC50, lay at 221 pM. Besides, the FACS signal is 2560 relative flourescence units in assay [2], 1 relative flourescence units with dog red blood cells [3] and 272 relative flourescence units in assay [4].

B5: TPP-9049 FVIII-scFv fusion protein (other)
chain: ATRRYYLGAVELSWDYMQSDLGELPVDARFPPRVPKSFPFNTSVVYKKTLFVEFTDHLFNIAKPRPPWMGLLGPTIQAEVYDTVVITLKNMASHPVSLHAVGVSYWKASEGAEYDDQTSQREKEDDKVFPGGSHTYVWQVLKENGPMASDPLCLTYSYLSHVDLVKDLNSGLIGALLVCREGSLAKEKTQTLHKFILLFAVFDEGKSWHSETKNSLMQDRDAASARAWPKMHTVNGYVNRSLPGLIGCHRKSVYWHVIGMGTTPEVHSIFLEGHTFLVRNHRQASLEISPITFLTAQTLLMDLGQFLLFCHISSHQHDGMEAYVKVDSCPEEPQLRMKNNEEAEDYDDDLTDSEMDVVRFDDDNSPSFIQIRSVAKKHPKTWVHYIAAEEEDWDYAPLVLAPDDRSYKSQYLNNGPQRIGRKYKKVRFMAYTDETFKTREAIQHESGILGPLLYGEVGDTLLIIFKNQASRPYNIYPHGITDVRPLYSRRLPKGVKHLKDFPILPGEIFKYKWTVTVEDGPTKSDPRCLTRYYSSFVNMERDLASGLIGPLLICYKESVDQRGNQIMSDKRNVILFSVFDENRSWYLTENIQRFLPNPAGVQLEDPEFQASNIMHSINGYVFDSLQLSVCLHEVAYWYILSIGAQTDFLSVFFSGYTFKHKMVYEDTLTLFPFSGETVFMSMENPGLWILGCHNSDFRNRGMTALLKVSSCDKNTGDYYEDSYEDISAYLLSKNNAIEPRSFSQNPPVLKRHQREITRTTLQSDQEEIDYDDTISVEMKKEDFDIYDEDENQSPRSFQKKTRHYFIAAVERLWDYGMSSSPHVLRNRAQSGSVPQFKKVVFQEFTDGSFTQPLYRGELNEHLGLLGPYIRAEVEDNIMVTFRNQASRPYSFYSSLISYEEDQRQGAEPRKNFVKPNETKTYFWKVQHHMAPTKDEFDCKAWAYFSDVDLEKDVHSGLIGPLLVCHTNTLNPAHGRQVTVQEFALFFTIFDETKSWYFTENMERNCRAPCNIQMEDPTFKENYRFHAINGYIMDTLPGLVMAQDQRIRWYLLSMGSNENIHSIHFSGHVFTVRKKEEYKMALYNLYPGVFETVEMLPSKAGIWRVECLIGEHLHAGMSTLFLVYSNKCQTPLGMASGHIRDFQITASGQYGQWAPKLARLHYSGSINAWSTKEPFSWIKVDLLAPMIIHGIKTQGARQKFSSLYISQFIIMYSLDGKKWQTYRGNSTGTLMVFFGNVDSSGIKHNIFNPPIIARYIRLHPTHYSIRSTLRMELMGCDLNSCSMPLGMESKAISDAQITASSYFTNMFATWSPSKARLHLQGRSNAWRPQVNNPKEWLQVDFQKTMKVTGVTTQGVKSLLTSMYVKEFLISSSQDGHQWTLFFQNGKVKVFQGNQDSFTPVVNSLDPPLLTRYLRIHPQSWVHQIALRMEVLGCEAQDLYGGGSGGGGSGLVPRGSGGGSGGGGSGDIQLTQSPSFLSASVGDRVTITCRASSSVRYIYWFQQKPGKAPKLLIYATSFRQSGVPSRFSGSGSGTEYTLTISSLQPEDFATYYCHQRNSFPYTFGQGTKLEIKGGGGSGGGGSGGGGSGGGGSEVQLVQSGAEVKKPGASVKVSCKASGYTFTTYAIHWVRQAPGQGLEWMGYINPSSGYTRYNPKFKGRVTMTRDKSTSTAYMELRSLRSDDTAVYYCWTGTRDYWGQGTTVTVSS
notes: The entry is the mature protein; mostly a 2 chain molecule; also called BDD-C scFv; PPB 6733
For the molecule B5, the “% bound to Cyno RBC” value in [5] was 28.1%; in [6] it was 48.2%; in assay [7], 62.1%; in assay [8] it was 67.5%; in assay [9], 72.2%; in assay [10], 73.8%. Also, the “percentage bound to human RBC” value in assay [11] stood at 24.6%; in assay [12], 48.5%; in assay [13] it was 64.8%; in assay [14] it was 72.5%; in assay [15], 77.8%; in [16] it was 80.3%. Also, in [17], the Kd was found to be 2400 pM. Moreover, in [17], the off-rate (koff) is 0.00305 s⁻¹. Further, the association rate constant (kon) in assay [17] is 1.27e+06 M⁻¹ s⁻¹.

B6: 1H5B4/H12 (antibody, V domains shown)
VH: B2 VH
VL: DIVMTQSPSSLSVSAGEKVTMSCKSSQSLLNSGNQKNYLAWYQQKPGQPPKLLIYGASTRESGVPDRFTGSGSGTDFTLTISSVQAEDLAVYYCQNDHSYPYTFGGGTKLEIK
notes: as m8
As for B6, a half-maximal effect in assay [1] (EC50) was put at 403 pM. Also, the FACS signal was 1.05 relative flourescence units in assay [2] and 0.93 relative flourescence units in assay [4].

B7: 1E4 scFv-Fc (Fc fusion)
scFv: QVQLQQSGAELARPGASVKMSCKASGYTFTRYSMHWVKQRPGQGLEWIGYINPGTYYTNYNQKFKDRATLTADKSSSTAYMQLNSLTSEDSAVYYCQTGTRDYWGQGTTLTVSSGGGGSGGGGSGGGGSQIVLTQSPPIMSASPGEKVTITCSAASSVSYIYWFQQKPGTSPKLWIYSTSSLPSGVPTRFSGSGSGTSYSLTISRMEAEDAATYYCHQRSSYPFTFGSGTKLEIRGGGGAGGGGCKPCICTVPEVSSVFIFPPKPKDVLTITLTPKVTCVVVDISKDDPEVQFSWFVDDVEVHTAQTQPREEQFNSTFRSVSELPIMHQDWLNGKEFKCRVNSAAFPAPIEKTISKTKGRPKAPQVYTIPPPKEQMAKDKVSLTCMITDFFPEDITVEWQWNGQPAENYKNTQPIMDTDGSYFVYSKLNVQKSNWEAGNTFTCSVLHEGLHNHHTEKSLSHSPGK
notes: as m18
As to B7, the FACS signal in the assay with dog red blood cells [18] stood at 1 Flourescent units; in [19] it was 1720 Flourescent units; in [20], 1 Flourescent units; in [21] it was 453 Flourescent units; in assay [22], 487 Flourescent units.
